The values that follow come from article PMC9942873 (Immunity, 2023).

Assay in all cases: ELISA
Holding throughout (settings): both partners purified
In general terms: In an ELISA, binding on a coated surface is turned into a signal by an enzyme label.

Test [1] deals with T1, recombinant full-length Pfs48/45 (Plasmodium falciparum 3D7, UniProt Q8I6T1).
Test [2] has as its target T2, Pfs48/45 D1-2 (Plasmodium falciparum 3D7, UniProt Q8I6T1).
Test [3] deals with T1, recombinant full-length Pfs48/45. This is another data set of the same source.
Test [4] addresses T2, Pfs48/45 D1-2. This is another data set of the same source.

T1 sequence (Q8I6T1 28-428): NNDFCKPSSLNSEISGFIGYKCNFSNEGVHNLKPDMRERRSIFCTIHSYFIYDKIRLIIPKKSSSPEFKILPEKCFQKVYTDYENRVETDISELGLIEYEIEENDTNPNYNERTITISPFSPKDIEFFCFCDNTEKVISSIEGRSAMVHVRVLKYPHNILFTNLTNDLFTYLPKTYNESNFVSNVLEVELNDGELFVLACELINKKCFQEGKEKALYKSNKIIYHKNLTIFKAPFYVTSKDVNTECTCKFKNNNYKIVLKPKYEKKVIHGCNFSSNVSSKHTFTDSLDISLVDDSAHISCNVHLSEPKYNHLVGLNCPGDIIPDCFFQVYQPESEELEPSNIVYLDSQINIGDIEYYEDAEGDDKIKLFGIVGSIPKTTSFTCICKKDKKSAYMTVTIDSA
T2 sequence (Q8I6T1 28-289): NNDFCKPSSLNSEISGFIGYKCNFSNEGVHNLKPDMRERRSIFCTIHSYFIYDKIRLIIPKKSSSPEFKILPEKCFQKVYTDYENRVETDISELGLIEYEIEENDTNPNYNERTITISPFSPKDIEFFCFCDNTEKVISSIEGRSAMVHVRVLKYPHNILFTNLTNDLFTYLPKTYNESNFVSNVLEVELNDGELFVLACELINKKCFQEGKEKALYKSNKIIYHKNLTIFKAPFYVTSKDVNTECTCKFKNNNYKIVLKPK

B1: RUPA-164 (antibody, V domains shown)
VH: QVQLQESGPGLVKPSETLSLTCSVSGGSMTSFYWSWIRQPPGKGLEWIGYVYYNGTTNYKPSLKSRVTISVDMSKNQVSLKLSSVTAADTAVYYCARDRVVGSYYYGMDVWGQGTTVTVSS
VL: EIVLTQPPVSLSLSPGEGATLSCRASQSVSSSYLAWYQQKPGQAPRLLMYSASRRATGIPDRFTGSGSGTDFTLTISRLEPEDFALYYCQHYGGSPRETFGQGTKVEIK
notes: human IgG1; source: recombinant human IgG1, 293T (Protein A purified) or GenScript
B1: the binding result (in test [1]; with Pfs48/45 D1-2 [2]) was “binds” in each case.

B2: RUPA-156 (antibody, V domains shown)
VH: EVQLVESGGGLVQPGGSLRLSCVVSGFTFSRYSMYWVRQAPGKGPEWVSYIDSTGTTIYYADSVKGRFTISRDNAKSSLSLQMSSLRDDDRGVYYCARDGRKDSGSFLDHWGQGTLVTVSS
VL: DIQMTQSPSSLSASVGDRVTITCRASQSISEWLAWYQQKPGKAPRLLIYQASSLQSGVPSRFSGSGSGTEFTLTISSLQSDDFATYYCQQFDTYWTFGQGTKVEIK
notes: as for B1
Take B2: the binding result (in test [1]; with Pfs48/45 D1-2 [2]) was “binds” each time.

B3: RUPA-165 (antibody, V domains shown)
VH: VQLQQWGAGLLKPSETLSLTCLVNGGSFSDYYWSWIRQPPGRGLEWIGDVNHSGTTNHRPSLQSRVTLSLDMSKNQFSLKLTSVTAADTAVYFCARRSSGYYRGSRYTGWLDPWGQGTLVTVSS
VL: IVMTQSPLSLSVSPGERATLSCRASQTITRNLAWYQQKPGQAPRLLIYGASTRAPDIPARFSASGSGTEFTLTISSLQSEDFALYYCQQYNNWPGLTFGGGTKVEIK
notes: as for B1
B3: the binding result (in test [1]; with Pfs48/45 D1-2 [2]) was “binds” throughout.

B4: RUPA-122 (antibody, V domains shown)
VH: QITLKESGPTLVKPTQTLMLTCSVSGFSLSNNGVAVGWVRQPPGKALEWLALIYWNDDSFYRPSLKSRLTINKDTSKNQVVLTMTNVAPVDTATYFCARTMKKITMIRGVPYEGGVQGFDPWGPGILVTVSS
VL: DIQMTQSPSSLSASVGDRVTITCRASQGIRDDLAWYQQKPGKAPERLIYAASSLQSGVPSRFSGSGYGTEFTLTISSLQPEDFATYYCQQYSGYFTFGGGTKVEIN
notes: as for B1
As to B4, the binding result (in test [1]; in the test with Pfs48/45 D1-2 [2]) was “binds” in each case.

B5: RUPA-66 (antibody, V domains shown)
VH: QVQVQQWGAGLLKPSETLSLTCAAFGGSFSDYYWSWIRQPPGKGLEWIGEINHSGTTNYNPSLKSRVIISVDTSKNQFSLKLSSVTAADTALYYCARRSSGWYRRSRYTGWFDPWGQGTLVTVSS
VL: EILMTQSPATLSVSPGERATLSCRASQTITSNLAWYQQKPGQAPRLLMYGASTRATGIPARFSGSGSGTEFTLTISSLQSEDFGIYYCQQYNNWPGLSFGGGTKVEIK
notes: as for B1
For the molecule B5, the binding result (in test [3]; with Pfs48/45 D1-2 [4]) was “binds” throughout.

B6: RUPA-119 (antibody, V domains shown)
VH: QVRLQQWGAGLLKPSETLSLTCGVSGGSFSDYYWTWIRQPPGKGLEWIGDISHSANTNYNESLQSRLTISVDTSKTQFSLRLASVTAADTALYFCARRSSGWYRQSRYTGWFDPWGQGTLVTVSS
VL: EIVMTQSPATLSVSPGERATLSCRASQSITSNLAWYQQKPGQAPRLLIYGASTRAAGIPARFSGSGSGTEFTLTISTLQSEDFAVYYCQQYNNWPGLTFGGGTTVEIK
notes: as for B1
As to B6, the binding result (in test [1]; in the test with Pfs48/45 D1-2 [2]) was “binds” each time.

B7: RUPA-75 (antibody, V domains shown)
VH: QVQLQQWGAGLLKPSETLSLTCGVNGGSFTDYYWTWIRQPPGKGLEWIGDINHSGITNYNPSLKSRLTLSVDTSKSHFSLRLNSVTAADTALYFCARRSSGYYRGSRYTGWLDPWGQGTLVTVSS
VL: EIVMTQSPATLSVSPGERATLSCWASQSITSNLAWYQQKPGQAPRLLIYGASTRATGIPARFSGSGSGTGFTLTISTVQSEDFAVYYCQQYNNWPGLTFGGGTKVEIK
notes: as for B1
For B7, the binding result (in test [3]; in the test with Pfs48/45 D1-2 [4]) was “binds” throughout.

B8: RUPA-116 (antibody, V domains shown)
VH: QVQLQQWGAGLLKPSETLSLTCVVYGGSFSDYYWSWVRQPPGKGLEWIGEVNHSGTTNYNPSLKSRLTISVDTSKNQISLRLNSLTAADTAVYYCARRSSGYYRQSRYTGWFDPWGRGTLVTVSS
VL: EIVMTQSPATLSVSPGERATLSCRASQSITSNLAWYQQKPGQAPRLLIYGASTRATGIPARFSGSGSGTEFTLTISSLQSDDFALYYCQQYNNWPGLTFGGGTKVEIK
notes: as for B1
As to B8, the binding result (in test [1]; in the test with Pfs48/45 D1-2 [2]) was “binds” throughout.

B9: RUPA-155 (antibody, V domains shown)
VH: QVQLQQWGAGLLKPSETLSLTCAVEGDSLGDYYWSWIRQPPGKGLEWIGDINHSGTTNYIPSLKSRVTISVDSSRNQFSLRLNFVTAADTATYFCARRASGWYRQSRYTGWFDPWGQGTLVTVSS
VL: EIVMTQSPATLSVSPGERATLSCRASHSINSNVAWYQQKPGQAPRLLIYGASTRATGIPARFSGSGSGTEFTLTISSLQTEDFAVYYCQQYNNWPGLSFGGGTKVEIK
notes: as for B1
With B9, the binding result (in test [1]; with Pfs48/45 D1-2 [2]) was “binds” throughout.

B10: RUPA-94 (antibody, V domains shown)
VH: QVQLRESGPGLVKPSETLSLTCSVSGGSITSSPYYWAWIRQPPGKGLEWIGSIYYSGGAYYNPSLKSRVTMSVDTSKNQFSLKVNSVTAADTAVYYCARRPNPGFWGGGYYFDYWGQGTLVTVSS
VL: QSALTQPASVSGSPGQSITISCTGSSSDVGSYNLVSWYQHHPGKAPKLMISEVSKRPSGVSDRFSGSKSGNTASLTISGLQAEDEADYYCCSYADSSTRNYVFGTGTKVTVL
notes: as for B1
For B10, the binding result (in test [1]; with Pfs48/45 D1-2 [2]) was “binds” each time.

B11: RUPA-71 (antibody, V domains shown)
VH: EEQLVESGGGLVKPGRSLRLSCSASGFTLGDYAVTWFRQASGKEPEWVGVIRTKDEGGTTEYAASVKGRFSILRDDSKSIAHLQMNSLKIEDTAVYYCTRNGLRWYDSSGPRGWAFDIWGPGTLVVVSS
VL: EIVMTQSPATVSVSPGERATLSCRTSQSVSNKLAWYQQKPGQAPRLLIYGASTRATGIPARFSGSGSGTQFTLTISSLQSEDFAVYYCQQYNNWPPWTFGRGTKVEIK
notes: as for B1
B11: the binding result (in test [3]; with Pfs48/45 D1-2 [4]) was “binds” each time.

B12: RUPA-58 (antibody, V domains shown)
VH: QVQLVQSGPEAKKPGASVKVSCQASGYPFSGYYMHWLRQAPGQGLEWMGWMNPNSGGTKYAQRFQGRVTMTRDTSISTAHMELRGLRSDDTAVYYCARDYCTGSSCYRTDYDYWGQGTLVTVSS
VL: DIQMTQSPSSLSASVGDRVTITCRASQIISTYLNWYQHKPGKAPKLLIKSASTLQSGVPSRFSGSGSGTDFTLTITSLQPEDFATFYCQQSYRDPITFGQGTRLEIK
notes: as for B1
In the case of B12, the binding result (in test [3]; with Pfs48/45 D1-2 [4]) was “binds” each time.

B13: RUPA-67 (antibody, V domains shown)
VH: QVQLLESGPGLVKPSETLSLTCTVSGASISTSYWSWIRQPAGKGLEWIGRFHISESSNYNPSLKSRLTLSADTSKNQVSLRLSSVTAADTAVYYCARDVSPEECVSTKCYRRPGYMDVWGKGTSVTVSS
VL: DIQMTQSPSSLSASVGDRVTITCRASQSIRNYLNWYLQKPGKAPKLLIFGASSLQSGVPSRFSGSGSGTDFTLTISSLLPEDFATYYCQQSYTTPRTFGQGTKVEIK
notes: as for B1
For the molecule B13, the binding result in test [3] is listed as “binds”.

B14: RUPA-114 (antibody, V domains shown)
VH: QVYLVQSGAEVKKPGASVKVSCKASGYDFTSYGIAWVRQAPGQGLEWMGWIGGYDDKTDYAQNLQGRFTVTTDTSTSTAYMELRSLKSDDTAVYYCARGGDRGDGLRFYYFALDVWGQGTTVTVSS
VL: DIVLAQSPGTLSLSPGEGATLSCRASQSIYNSYLAWYQHKPGQAPRLLIYGASSRATGIPDRFSGSGSGTDFTLTISRLEPEDFAVYYCQLYGRSSWTFGQGTKVEIK
notes: as for B1
B14: the binding result (in test [1]; with Pfs48/45 D1-2 [2]) was “binds” in each case.

B15: RUPA-51 (antibody, V domains shown)
VH: QVQLVQPGAEVKKPGASVKVSCKASGYIFSTYGISWVRQAPGQGLEWMGWTSSYSDDTNYAQKFQDRVTMTTDTSTSTAYMELRSLRSDDTAVYYCARGGDRGDGPRFYYYGLDVWGQGTTVTVSS
VL: EIVLTQSPGTLSLSPGERATLSCRASQSLYNSYLAWYQQKPGQAPRLLIYGASSRATGIPGRFSGSGSGTDFSLTISRLEPEDFAVYYCSLYGRSSWTFGQGTKVEIK
notes: as for B1
For the molecule B15, in test [3], the binding result is on record as “binds”.

B16: RUPA-158 (antibody, V domains shown)
VH: QVQLVQPGAEVKKPGASVKVSCKASGYIFSTYGISWVRQAPGQGLEWMGWTSSYSDDTNYAQKFQDRVTMTTDTSTSTAYMELRSLRSGDTAVYYCARGGDRGDGPRYYYYGLDVWGQGTTVTVSS
VL: EIVLTQSPSTLSLSPGERATLSCRASQSLYNSYLAWYQQKPGQAPRLLIYGASSRATGIPGRFSGSGSGTDFSLTISRLEPEDFAVYYCSLYGRSSWTFGQGTKVEIK
notes: as for B1
Take B16: the binding result in test [1] is on record as “binds”.

B17: RUPA-130 (antibody, V domains shown)
VH: EVQLVESGGGLVKPGGSLRLSCEASGFTFRNAWMSWVRQAPGKGLEWVGRIKSYIDGGTADYAAPVKGRFSISRDDSKNTLFVQMNSLKTEDTAVYYCTTDSWAGEVGNYYFDNWGQGTLVTVSS
VL: QSALTQPASVSGSPGQSITISCTGTSSDVGSYNFVSWYQQHPGKAPKLMIYQVTWRPSGVSNRFSGSKSGNTASLTISGLQAEDEADYYCCSYSKSSTYVFGTGTKVSVL
notes: source: recombinant human IgG1, 293T (Protein A purified) or GenScript
B17: the binding result (in test [1]; with Pfs48/45 D1-2 [2]) was “binds” in each case.

B18: RUPA-141 (antibody, V domains shown)
VH: EVQLVESGGGLVQPGESLRLSCAASGFTFNTYWMTWVRQAPGKGLEWVANINQDGSQKNYVDSVKGRFTVSRDNAKKSLFLQMNSLRAEDTAVYYCARDNGARYSGVWYDGWYDAFDIWGRGTVLTVSS
VL: AIQMTQSPSSLSASVGDRVTITCRASQGIKNDLGWYQQKTGKAPKLLIYAASSLQSGVPSRFSGSGSGTDFTLTISSLQPEDFATYYCLQDYNYPRTFGQGTKVEIK
notes: as for B17
For the molecule B18, in test [1], the binding result is reported as “binds”.

B19: RUPA-48 (antibody, V domains shown)
VH: EVQLVESGGGLVQPGRSLRLSCAASGFSFDDHAMHWVRQAPGKGLEWVSGISWNSGNIGYADSVKGRFTISRDNAKNSLYLQMNSLRPEDTALYHCAKDGGYCSGIRCYHLRGMDVWGQGTTVTVSS
VL: EIVLTQSPATLSLSPGERATLSCRASQSVTNYLAWYQQKPGQAPRLLIYDASNRATGIPARFSGSGSGTDFTLTISSLEPEDFGVYYCQQRSSWPPYTFGQGTKLEIK
notes: as for B1
Regarding B19, in test [3], the binding result was “binds”.
